Experimental findings from article PMC5481773, “Structural insights into the function of ZRANB3 in replication stress response” (Nature Communications, 2017) are described below.

B1: N1036A: ZRANB3 HNH active site mutant (protein, UniProt Q5FWF4 1-1079, looked up, variant N1036A)
DNA annealing helicase and …: MPRVHNIKKSLTPHISCVTNESDNLLDFLPDRLRAKLLPFQKDGIIFALKRNGRCMVADEMGLGKTIQAIGITYFYKEEWPLLIVVPSSLRYPWTEEIEKWIPELSPEEINVIQNKTDVRRMSTSKVTVLGYGLLTADAKTLIDALNNQNFKVVIVDESHYMKSRNATRSRILLPIVQKARRAILLTGTPALGRPEELFMQIEALFPQKFGRWTDYAKRYCNAHIRYFGKRPQWDCRGASNLNELHQLLSDIMIRRLKTEVLTQLPPKVRQRIPFDLPSAAAKELNTSFEEWEKIMRTPNSGAMETVMGLITRMFKQTAIAKAGAVKDYIKMMLQNDSLKFLVFAHHLSMLQACTEAVIENKTRYIRIDGSVSSSERIHLVNQFQKDPDTRVAILSIQAAGQGLTFTAASHVVFAELYWDPGHIKQAEDRAHRIGQCSSVNIHYLIANGTLDTLMWGMLNRKAQVTGSTLNGRKEKIQAEEGDKEKWDFLQFAEAWTPNDSSEELRKEALFTHFEKEKQHDIRSFFVPQPKKRQLMTSCDESKRFREENTVVSSDPTKTAARDIIDYESDVEPETKRLKLAASEDHCSPSEETPSQSKQIRTPLVESVQEAKAQLTTPAFPVEGWQCSLCTYINNSELPYCEMCETPQGSAVMQIDSLNHIQDKNEKDDSQKDTSKKVQTISDCEKQALAQSEPGQLADSKEETPKIEKEDGLTSQPGNEQWKSSDTLPVYDTLMFCASRNTDRIHIYTKDGKQMSCNFIPLDIKLDLWEDLPASFQLKQYRSLILRFVREWSSLTAMKQRIIRKSGQLFCSPILALEEITKQQTKQNCTKRYITKEDVAVASMDKVKNVGGHVRLITKESRPRDPFTKKLLEDGACVPFLNPYTVQADLTVKPSTSKGYLQAVDNEGNPLCLRCQQPTCQTKQACKANSWDSRFCSLKCQEEFWIRSNNSYLRAKVFETEHGVCQLCNVNAQELFLRLRDAPKSQRKNLLYATWTSKLPLEQLNEMIRNPGEGHFWQVDHIKPVYGGGGQCSLDALQTLCTVCHKERTARQAKERSQVRRQSLASKHGSDITRFLVKK
B2: H1045A: ZRANB3 HNH active site mutant (protein, UniProt Q5FWF4 1-1079, looked up, variant H1045A)
DNA annealing helicase and …: B1 DNA annealing helicase and … with A1036N, H1045A
B3: D1020A: ZRANB3 HNH active site mutant (protein, UniProt Q5FWF4 1-1079, looked up, variant D1020A)
DNA annealing helicase and …: B1 DNA annealing helicase and … with D1020A, A1036N
B4: WT ZRANB3: full-length human ZRANB3, recombinant; YFP-tagged in the cell assay (protein)
chain: B1 DNA annealing helicase and … with A1036N
modifications: left off: His6, N-terminal, cleaved
notes: full-length human ZRANB3, recombinant; YFP-tagged in the cell assay
B5: K1046A, R1048A: ZRANB3 double mutant in helix α8 (protein, UniProt Q5FWF4 1-1079, looked up, variant K1046A R1048A)
DNA annealing helicase and …: B1 DNA annealing helicase and … with A1036N, K1046A, R1048A
B6: R947Q: cancer associated ZRANB3 mutant (protein, UniProt Q5FWF4 1-1079, looked up, variant R947Q)
DNA annealing helicase and …: B1 DNA annealing helicase and … with R947Q, A1036N
B7: D1020Y: cancer associated ZRANB3 mutant (protein, UniProt Q5FWF4 1-1079, looked up, variant D1020Y)
DNA annealing helicase and …: B1 DNA annealing helicase and … with D1020Y, A1036N
B8: T66A: cancer associated ZRANB3 mutant (protein, UniProt Q5FWF4 1-1079, looked up, variant T66A)
DNA annealing helicase and …: B1 DNA annealing helicase and … with T66A, A1036N
B9: H1021A: ZRANB3 HNH active site mutant (protein, UniProt Q5FWF4 1-1079, looked up, variant H1021A)
DNA annealing helicase and …: B1 DNA annealing helicase and … with H1021A, A1036N
B10: H1015A: ZRANB3 HNH active site mutant (protein, UniProt Q5FWF4 1-1079, looked up, variant H1015A)
DNA annealing helicase and …: B1 DNA annealing helicase and … with H1015A, A1036N

Residue numbers refer to the chain shown, from its start. In names and notes the source's numbering stands.

Test system in one data set: not listed separately
Kind of data set: NADH-coupled ATPase assay of ZRANB3 proteins. The conditions noted are these: 150 nM ZRANB3, 5 mM ATP, 0.5 μM flap DNA, 24 °C, A340 nm, average rates. Format: biochemical. The protocol:
The NADH-coupled ATPase assay is based on a reaction in which the regeneration of hydrolysed ATP is coupled to the oxidation of NADH[59]. It was used as described, with minor modifications. ZRANB3 (150 nM) was added to a 150 μl reaction containing 25 mM Tris-Cl pH 7.5, 13 mM MgCl2, 1.8 mM DTT, 100 μg ml^−1 BSA, 3 mM phosphoenolpyruvate, 36 U ml^−1 pyruvate kinase, 20 U ml^−1 lactate dehydrogenase, 0.5 μM flap DNA, and 5 mM ATP, with 750 μM NADH added immediately before ZRANB3. Reactions were mixed for 1 min on a shaker at 23 °C and analysed by measuring A340 nm at 20 s intervals during 60 min, on a Spectramax 250 microplate spectrophotometer at 24 °C. Linear titration of freshly prepared NADH was performed to obtain a standard curve for units of absorbance mM^−1 NADH. ATPase rates were calculated from data collected between time points where product formation was linear with respect to time.
B1 showed an ATP hydrolysis rate of 14.05 ± 2.46 µmol/L/min.
On the same count and under the same terms, under B2 stands 8.91 ± 0.66 µmol/L/min.
Still for that read-out and setting: with B3 the figure was 12.94 ± 0.67 µmol/L/min.
On the same count and under the same terms, with B4 the figure was 16.59 ± 0.34 µmol/L/min; with B5, 19.38 ± 1.74 µmol/L/min.
The molecule B6 returned an ATP hydrolysis rate of 10.24 ± 1.15 µmol/L/min.
The same measure, in the same setting: under B7 stands 11.60 ± 3.30 µmol/L/min; under B8, 0.45 ± 0.03 µmol/L/min.
Still for that read-out and setting: under B9 stands 18.59 ± 1.98 µmol/L/min.
B10 displayed an ATP hydrolysis rate of 18.67 ± 2.24 µmol/L/min.

Staying with this data set, now noted: 150 nM ZRANB3, 5 mM ATP, 0.5 μM flap DNA, 24 °C, average rates.
As to B1, the k is 93.71 ± 16.43 min⁻¹.
On the same count and under the same terms, under B2 stands 59.42 ± 4.40 min⁻¹; under B3, 86.32 ± 4.49 min⁻¹.
On the same count and under the same terms, with B4 the figure was 110.65 ± 2.27 min⁻¹; with B5, 129.23 ± 11.62 min⁻¹; with B6, 68.26 ± 7.70 min⁻¹.
For the molecule B7, the k came to 77.36 ± 22.04 min⁻¹.
The same measure, in the same setting: under B8 stands 3.02 ± 0.21 min⁻¹; under B9, 123.95 ± 13.19 min⁻¹; under B10, 124.46 ± 14.96 min⁻¹.

Another data set has as its system splayed DNA duplex. As to the kind of experiment: Nuclease assay with wild-type and mutant ZRANB3 proteins. In kind it is biochemical. The conditions noted are these: 200 nM nuclease, 10 nM fluorescently labelled DNA substrate, 2 mM ATP, 30 °C, 60 min, native PAGE (Fig. 3c). The text has this:
Figure 3 Characterisation of the ZRANB3 HNH active site. (a) Overlay of the T4 endonuclease VII (yellow) and the ZRANB3 HNH (white) structures. […] (b) Overlay of the T4 endonuclease VII (yellow, labels in italics) and the ZRANB3 HNH (white) structures. Mg^2+ ion in T4 endonuclease is shown as a purple sphere. His1021, Asp1020 and His1045 in the HNH structure overlap with the active site residues of T4 endonuclease VII. (c) Nuclease assay with the wild-type and mutant ZRANB3 proteins in the presence and absence of ATP. Reactions were analysed by native poly-acrylamide gel electrophoresis. Indicated are mobilities of the fluorescently labelled DNA substrate and product. (d) Nuclease assay with non-hydrolysable ATP homologues. Shown are controls with the wild-type ZRANB3 and the ATPase dead K65R mutant in the presence of ATP.
Oligonucleotides used in the nuclease assays (5′-[…]-[…]-3′ and Cy3 5′-end-labelled 5′-[…]-[…]-3′) were incubated in 10 mM Tris-HCl pH 7.5, 50 mM NaCl for 3 min at 94 °C, after which the reactions were allowed to gradually cool down.
The nuclease assays with ZRANB3 was performed essentially as described in ref. [9]. Briefly, reaction mixtures containing the indicated nuclease (200 nM) and fluorescently labelled DNA substrate (10 nM) in 10 μl of reaction buffer (50 mM Tris-HCl; 50 mM NaCl; 5 mM MgCl2; 2 mM ATP (Sigma); pH 7.5) were incubated at 30 °C for 60 min. The reactions were stopped by incubation with 0.1% SDS and 4 mg ml^−1 of proteinase K at 30 °C for 45 min. The reactions were then mixed with sucrose (10% final concentration) and resolved in a 10% polyacrylamide gel in 0.5 × TBE buffer (45 mM Tris-borate, 1 mM EDTA; pH 7.5). The fluorescent DNA species were visualized and quantified using Pharos Mx imager and Quantity one software (BioRad).
As to B1, the “ZRANB3 endonuclease activity of mutant protein” value was “substantially reduced”.
Still for that read-out and setting: under B2 stands “completely abrogated”; under B3, “completely abrogated”.
The same measure, in the same setting: under B9 stands “completely abrogated”.

For a further data set, the system named is U2OS cells. As to the kind of experiment: Colocalization of YFP-ZRANB3 foci with endogenous PCNA. In kind it is cell-based. The conditions noted are these: U2OS cells transfected with YFP-ZRANB3, UV 40 J m^−2, 6 h recovery; average of three experiments. The text has this: Figure 5 PCNA-dependent recruitment of ZRANB3. (a) Recruitment of FEN1 to the sites of laser induced DNA damage is abrogated by the mutations in the PIP box (Q337A, F343A and F344A). U2OS cells were transiently transfected with the indicated YFP constructs and analysed by live-cell imaging. Shown are representative images at the indicated time points post damage. (b) Recruitment of the YFP-tagged PIP box and APIM motif to the sites of laser induced DNA damage. Recruitment is abrogated by the mutations of the conserved residues in the PIP box and the APIM motif. […] The percentage of cells containing ZRANB3 foci that colocalize with PCNA was determined. […]
U2OS cells (ATCC) were seeded onto glass coverslips and transfected with the YFP constructs using Lipofectamine 2000 (Life Technologies). […] The coverslips were mounted in ProLong Gold anti-fade reagent with DAPI (Life Technologies) and analysed by confocal microscopy.
For the recruitment of ZRANB3 to stalled replication forks, U2OS cells were seeded onto glass coverslips and transfected with YFP-ZRANB3 constructs. […] Finally, the samples were analysed by confocal microscopy. For each experiment, more than 100 cells were counted, and the results from three independent transfections were pooled for statistical analyses.
Take B4: the “cells that formed ZRANB3 foci (colocalizing with PCNA)” value is listed as over 95%.

The data set is the same for the next values; noted with them: U2OS cells transfected with YFP-ZRANB3, undamaged conditions; average of three experiments.
B4: the “cells that formed ZRANB3 foci (colocalizing with PCNA)” value is reported as about 20%.
